Where a chain is given by its changes, count along the chain named. Blank lines part the entries; values can stand above or below the binder they belong to.
What was measured:
human ACVR2A = target: T1, human ACVR2A (human, UniProt P27037 20-135, limits assumed); test: ELISA
T1 construct: also called activin receptor, type II A
Method in brief: (§1)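 ELISA measured binding of ACVR2A-specific monoclonal antibodies to human and mouse ACVR2A. Biotinylated goat anti-human kappa light chain served as positive control and human Fc as negative control.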

mouse ACVR2A = mouse ACVR2A (mouse, UniProt P27038 20-135, limits assumed); test: ELISA
Chain of mouse ACVR2A (P27038 20-135 limits assumed): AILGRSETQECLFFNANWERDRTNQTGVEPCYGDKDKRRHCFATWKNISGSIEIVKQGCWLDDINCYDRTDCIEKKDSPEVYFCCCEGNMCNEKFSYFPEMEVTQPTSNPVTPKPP
Method in brief: as §1

[1] = target: T2, biotinylated goat anti-human kappa light chain; test: ELISA, positive control
T2 construct: positive control of the ELISA
Method in brief: as §1
Further: test concentration or dose not given here.

T1 sequence (P27037 20-135 limits assumed): as the sequence (P27038 20-135 limits assumed) above, with R20K, I73V counted along it

optical density (human ACVR2A): 2.08 OD
optical density (mouse ACVR2A): 2.19 OD
optical density [1]: 3.54 OD
B1: 367_F08 (antibody, V domains shown)
VH: EVQLLESGGGLVQPGGSLRLSCAASGFTFSSYGMHWVRQAPGKGLEWVSSINYNSGYTSYADSVKGRFTISRDNSKNTLYLQMNSLRAEDTAVYYCARAATWHDTHLDYWGQGTLVTVSS
VL: DIQMTQSPSSLSASVGDRVTITCRASQSILSYVNWYQQKPGKAPKLVIYAATSRASGVPSRFSGSGSGTDFTLTISSLQPEDFATYYCQQSNELPLTFGGGTKVEIK
notes: Group II

optical density (human ACVR2A): 2.18 OD
optical density (mouse ACVR2A): 2.27 OD
optical density [1]: 3.65 OD
B2: 368_F02 (antibody, V domains shown)
VH: B1 VH with H35N, S49A, T101N
VL: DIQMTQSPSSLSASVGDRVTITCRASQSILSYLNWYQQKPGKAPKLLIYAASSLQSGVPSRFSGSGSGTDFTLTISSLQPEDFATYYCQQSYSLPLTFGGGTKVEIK
notes: Group I

optical density (human ACVR2A): 2.49 OD
optical density (mouse ACVR2A): 2.45 OD
optical density [1]: 3.62 OD
B3: 368_C12 (antibody, V domains shown)
VH: B1 VH with S30D, S49A, S55G
VL: B1 VL with S31T, V33L, V47L, N92D, E93S, L94N
notes: Group II

optical density (human ACVR2A): 2.25 OD
optical density (mouse ACVR2A): 2.52 OD
optical density [1]: 3.28 OD
B4: 368_A06 (antibody, V domains shown)
VH: B1 VH with S30D, G33S, S49A, S50G, T58K, S59G, T101N
VL: B1 VL with V47L, A55H, N92Y, E93N, L94S
notes: Group I

optical density (human ACVR2A): 2.03 OD
optical density (mouse ACVR2A): 2.11 OD
optical density [1]: 3.41 OD
B5: 368_D06 (antibody, V domains shown)
VH: B1 VH with H35N, S50N, S55G, S59G
VL: B1 VL with A55H, N92Y, L94N
notes: Group II

optical density (human ACVR2A): 2.39 OD
optical density (mouse ACVR2A): 2.55 OD
optical density [1]: 3.49 OD
B6: 368_D03 (antibody, V domains shown)
VH: B1 VH with S31D, G33S, S49A, S55G
VL: B1 VL with L30I, S31T, V47L, A51T, N92Y, E93D
notes: Group II

optical density (human ACVR2A): 2.51 OD
optical density (mouse ACVR2A): 2.47 OD
optical density [1]: 3.49 OD
B7: 368_B12 (antibody, V domains shown)
VH: B1 VH with S30D, S50G
VL: B1 VL with L30V, V47L, N92Y, E93D
notes: Group II

optical density (human ACVR2A): 2.59 OD
optical density (mouse ACVR2A): 2.63 OD
optical density [1]: 3.6 OD
B8: 367_G03 (antibody, V domains shown)
VH: B1 VH with S30D, G33S, S49A, S50N, S55G
VL: B1 VL with L30V, A55H, N92Y, E93D
notes: Group II

optical density (human ACVR2A): 2.35 OD
optical density (mouse ACVR2A): 2.42 OD
optical density [1]: 3.02 OD
B9: 368_B10 (antibody, V domains shown)
VH: B1 VH with S30D, S49A, S55G, T101N, H106A
VL: B1 VL with S31T, V33L, N92D
notes: Group I

optical density (human ACVR2A): 2.27 OD
optical density (mouse ACVR2A): 2.67 OD
optical density [1]: 3.5 OD
B10: 368_E08 (antibody, V domains shown)
VH: B1 VH with S30D, S49A, S50N, S59G
VL: B1 VL with R54L, A55H, N92Y, L94T
notes: Group II

optical density (human ACVR2A): 2.56 OD
optical density (mouse ACVR2A): 2.67 OD
optical density [1]: 3.56 OD
B11: 367_G11 (antibody, V domains shown)
VH: B1 VH with S49A, S55G
VL: B1 VL with S31T, V33L, V47L, A55H, N92D, E93D, L94S
notes: Group II

optical density (human ACVR2A): 2.2 OD
optical density (mouse ACVR2A): 2.46 OD
optical density [1]: 3.26 OD
B12: 368_D07 (antibody, V domains shown)
VH: B1 VH with S30D, S49A, S55G, S59G
VL: not shown
notes: Group II

optical density (human ACVR2A): 2.82 OD
optical density (mouse ACVR2A): 2.69 OD
optical density [1]: 3.65 OD
B13: 367_H01 (antibody, V domains shown)
VH: B1 VH with S30D, H35N, S50G, S55G, T58K, T101N, H106A
VL: B1 VL with S31T, V33L, N92Y, E93D, L94N
notes: Group I

optical density (human ACVR2A): 1.98 OD
optical density (mouse ACVR2A): 2.18 OD
optical density [1]: 3.21 OD
B14: 368_B08 (antibody, V domains shown)
VH: B1 VH with S30D, H35N, S55G, T101N
VL: B1 VL with S31T, N92Y, L94N
notes: Group I

optical density (human ACVR2A): 2.48 OD
optical density (mouse ACVR2A): 2.47 OD
optical density [1]: 3.67 OD
B15: 368_C04 (antibody, V domains shown)
VH: B1 VH with S30D, S50N, S55G
VL: B1 VL with V47L, N92Y, E93S, L94T
notes: Group II

optical density (human ACVR2A): 2.48 OD
optical density (mouse ACVR2A): 2.61 OD
optical density [1]: 3.46 OD
B16: 368_C09 (antibody, V domains shown)
VH: B1 VH with G33S, S50N, S55G, S59G, T101N
VL: B1 VL with S31T, V47L, R54L, N92Y, E93D
notes: Group I

optical density (human ACVR2A): 2.14 OD
optical density (mouse ACVR2A): 2.35 OD
optical density [1]: 3.61 OD
B17: 368_B11 (antibody, V domains shown)
VH: B1 VH with S30D, S50G, S55G, T58K, T101N
VL: B1 VL with V33L, V47L, T52S, R54L, A55Q, N92Y, E93D, L94S
notes: Group I

optical density (human ACVR2A): 2.57 OD
optical density (mouse ACVR2A): 2.74 OD
optical density [1]: 3.69 OD
B18: 368_A02 (antibody, V domains shown)
VH: B1 VH with S30D, H35N, S49A, S50G, S55G, T58K, T101N
VL: B1 VL with L30I, N92Y, E93D, L94T
notes: Group I

optical density (human ACVR2A): 3.01 OD
optical density (mouse ACVR2A): 2.78 OD
optical density [1]: 3.69 OD
B19: 368_A12 (antibody, V domains shown)
VH: B1 VH with S30D, G33S, T58K, S59G, T101N, H106A
VL: B1 VL with S31T, V33L, N92Y, E93D, L94S
notes: Group I

optical density (human ACVR2A): 2.19 OD
optical density (mouse ACVR2A): 2.11 OD
optical density [1]: 3.46 OD
B20: 368_D09 (antibody, V domains shown)
VH: B1 VH with S30D, S49A, S50G, T58K, T101N
VL: B1 VL with L30V, V47L, R54L, N92Y, E93D, L94N
notes: Group I

optical density (human ACVR2A): 2.27 OD
optical density (mouse ACVR2A): 2.73 OD
optical density [1]: 3.29 OD
B21: 368_B04 (antibody, V domains shown)
VH: B1 VH with S30D, S55G
VL: B1 VL with L30V, V33L, N92Y, L94N
notes: Group II

optical density (human ACVR2A): 2.27 OD
optical density (mouse ACVR2A): 2.47 OD
optical density [1]: 3.54 OD
B22: 367_H08 (antibody, V domains shown)
VH: B1 VH with S30D, H35N, S55G
VL: B1 VL with S31T, V47L, A55H, N92Y, E93N
notes: Group II

optical density (human ACVR2A): 2.04 OD
optical density (mouse ACVR2A): 2.04 OD
optical density [1]: 3.38 OD
B23: 368_B03 (antibody, V domains shown)
VH: B1 VH with S30D, S31D, H35N, S50G, S55G, T101N, H106A
VL: B1 VL with S31T, V33L, R54L, Q90H, N92Y, L94N
notes: Group I

optical density (human ACVR2A): 2.58 OD
optical density (mouse ACVR2A): 2.37 OD
optical density [1]: 3.31 OD
B24: 368_C07 (antibody, V domains shown)
VH: B1 VH with S49A, S50G
VL: B1 VL with L30V, N92Y, L94N
notes: Group II

optical density (human ACVR2A): 1.87 OD
optical density (mouse ACVR2A): 2.07 OD
optical density [1]: 3.37 OD
B25: 368_E05 (antibody, V domains shown)
VH: B1 VH with S30D, G33S, S55G, T58K
VL: B1 VL with V33L, N92Y, E93S, L94S
notes: Group II

optical density (human ACVR2A): 2.21 OD
optical density (mouse ACVR2A): 2.36 OD
optical density [1]: 3.42 OD
B26: 367_F10 (antibody, V domains shown)
VH: B1 VH with S30D, H35N, S50G
VL: B1 VL with S31T, V33L, V47L, N92Y, E93D, L94T
notes: Group II

From patent US20210380703A1 (RIGEL PHARMACEUTICALS, published 2021)
